2 molecules from paper PMC5079630, “STAT2 Is a Pervasive Cytokine Regulator due to Its Inhibition of STAT1 in Multiple Signaling Pathways” (PLoS Biology, 2016) can be followed below.

The experiment addresses T1, STAT1 N domain (aminoterminal domain), recombinant.
T1 chain: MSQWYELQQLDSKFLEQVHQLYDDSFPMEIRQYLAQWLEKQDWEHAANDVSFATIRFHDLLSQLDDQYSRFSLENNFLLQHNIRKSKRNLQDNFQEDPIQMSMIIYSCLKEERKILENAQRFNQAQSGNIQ
Nature of the experiment: AUC; sedimentation equilibrium of purified recombinant N domains, homo- and heterotypic associations (dimer to monomers); STAT1 N domain and mEGFP-tagged STAT2 N domain at final equimolar concentrations of 2.5, 10, and 40 μM. The following applies: both partners purified.

B1: STAT1 N domain (aminoterminal domain), recombinant (domain or fragment)
chain: T1 chain
modifications: limits not printed (S1 Text/ref. 22); N domain taken up to the start of the conventional STAT1 core fragment (132-713); Strep-tag omitted / limits not printed (S1 Text/ref. 22); N domain taken up to …
For the molecule B1, the “fold stronger than STAT2 N domain homodimers” value is about 50 fold.

B2: STAT2 N domain (aminoterminal domain), recombinant, mEGFP-tagged (domain or fragment)
chain: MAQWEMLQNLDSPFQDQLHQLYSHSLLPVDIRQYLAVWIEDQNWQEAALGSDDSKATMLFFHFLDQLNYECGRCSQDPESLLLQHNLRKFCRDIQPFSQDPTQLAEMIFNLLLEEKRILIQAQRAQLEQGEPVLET
modifications: limits not given; N domain taken up to the start of the core region (P52630 region from 138), homologous to STAT1 1-131; mEGFP and Strep-tag omitted / limits not printed (S1 Text/ref. 22); N domain
In the case of B2, the “fold stronger than STAT1 N domain homodimers” value was at least 1000 fold.
